# Assay results reported in the supplement of paper PMC9170038.
# Test system: MS2 coat protein
# Assay: apparent KD of MS2 coat protein; higher = weaker reporter binding
# Conditions: Eterna round: R107; input ligand: arginine 13.2 mM
# Protocol: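 RNA-MaP round R107: designed RNA switches with theophylline, tryptophan, arginine or FMN aptamers are transcribed on-chip within common flanks. They are titrated with SNAP-549-labelled MS2 coat protein in RNA-MaP buffer (100 mM Tris pH 7.5, 80 mM KCl, 4 mM MgCl2), without ligand or with the indicated ligand. Median apparent KD per design.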
row,Sequence,apparent KD of MS2 coat protein [nM]
1,UGACAUUGCUCAGAUACCAGACAUGAGGAUCACCCAUGUGCCAAAUACGUACAAAUAAAUGUCCCUUGGCAGCUGAGCAAUGUCU [TheoBX 12 #MS2Left #Theo2],16.2
2,GCAUCCUAGUCGGCCGCCACUGCAUGUUGGCAGUGCUGCAACAUACAUGAGGAUCACCCAUGUUGCAGGACCGGGACUAGGAUGC [(Trp1)-(MT2)''-(T1)'-(MT2)'-(Ms2)-(Trp2)_Design1],23.8

# Same assay, conditions: Eterna round: R107; input ligand: none
row,Sequence,apparent KD of MS2 coat protein [nM]
1,AAAAGUAGGUCCAAUAAAACUACAUGUGAAGGAGCGCGCGAAAGCGCAGGUAGGUCGCACAUGAGGAUCACCCAUGUCCUACAAA [MAT - Exclusion Arginine A - Mod of Eli - D6],47.3
2,UUAUUUAACGGAAGGAGCGCGGAAAUAAAAGUGGGUAAACAUGAGGAUCACCCAUGUAAACCGCAGGUAGGUCGCCGAUAUUUAU [AstrosEXyARgB#2],76.9
3,CAUGUUAGGGCGGCCGCCACUGUGGCUACGGUACAUGAGGAUCACCCAUGUUUGUGGUUGAUCUACAGGACCGGGCCCUGACACG [Erarusge],187
4,ACAUGAGGAUCACCCAUGUAAAUAACGGAAGGAGCGUGCAAAAGCACAGGUAGGUCGCCGAUAUAAAUAUUGGGUAAUAUAUUAU [ExyArgA#1],34.2
5,GUAAUAUACAGAAGGAGCGUGAUAGUGAGCUUGUACAACAUGAGGAUCACCCAUGUAUAAUCACAGGUAGGUCGCUGUAUAGGGU [Arg B SS t2],16.1
6,GGUCGCCAACAUGGGUCGGUGAAAUGGGAAGGAGCGAGCGAGAGCUCAGGUAGGUCGCCCAAACAUGAGGAUCACCCAUGUAAUA [SSArg-A #28 UUU adds V2],125
7,UCACGACGGAUGGAUACCAGCGACAUGAGGAUCACCCAUGUAUGAGGAUCAGCCAUGUUAUGCCCUUGGCAGCCACGAAGGUCAU [YYYMULLIN],19
8,AUAUUAAUCGGAAGGAGCGGUACAUGAGGAUCACCCAUGUGCGAAGCCAGCAGAUCCCGUUACCAGGUAGGUCGCCGAGUUAUGA [Begebe],33
9,AUCCAUAGCCGAAGGAGCGCAGUAGGAUGACAUGAGGAUCACCCAUGUGUGUGAUGUGGAUUGCAGGUAGGUCGCGGAGUGGGUU [Exclusion - Arginine B (Freestyle 7)],65.2
10,UUAUAUAUGCGAAGGAGCGGGAAAUAUAUAUAUAUAAUCCUAACAUGAGGAUCACCCAUGUCCCAGGUAGGUCGCGCAUAUAUGG [12.E],84.4
11,GGUUGGUGUGGAGACAUAUUGAUUACUGAAGGAGCGGGAAUAAACCCAGGUAGGUCGCAGAGAUCCACAUGAGGAUCACCCAUGU [!0.P],44.8
12,UUCAGCUAGUCGGCCGCCACUAUCUGAGGAUCACCCAGGUAAUCCUAACACUGCUUCGGCAGUGGUAGGACCGGGACUAGCUGAG,14.5
13,ACAUUUAACUGAAGGAGCGUGAAUAACAUGAGGAUCACCCAUGUAACUUAGAUGCUUAUUUCACAGGUAGGUCGCAGACUAAUGA [JR_ExcArginiB_Sub010],10.3
14,UGAGAGGGCAGAAGGAGCGACAUGAGGAUCACCCAUGUCUCCCGUUAUGGGAGUUCUUUAGGUCAGGUAGGUCGCUGGCCUCUCA [#1 Exclusion - Arginine B Attempt #9 (Inspired by Omei)],117
15,ACAUGAGGAUCACCCAUGUCAGGGCACGAUACCAGCUGAUCCGGUGGCCCUUGGCAGCGUGACGUGUGGUCAUGAGGAUCACCCG [wsmullin],520
16,GCAUCCUAGUCGGCCGCCACUGCAUGUUGGCAGUGCUGCAACAUACAUGAGGAUCACCCAUGUUGCAGGACCGGGACUAGGAUGC [(Trp1)-(MT2)''-(T1)'-(MT2)'-(Ms2)-(Trp2)_Design1],24.3

# Same assay, conditions: Eterna round: R107; input ligand: theophylline 20 uM
row,Sequence,apparent KD of MS2 coat protein [nM]
1,AAAAGUAGGUCCAAUAAAACUACAUGUGAAGGAGCGCGCGAAAGCGCAGGUAGGUCGCACAUGAGGAUCACCCAUGUCCUACAAA [MAT - Exclusion Arginine A - Mod of Eli - D6],77.2
2,UUUGAUAGGACAGAUACCAGCGUGUUAUAGAACAUGAGGAUCACCCAUGUAGUGAUCAAGCGCCCUUGGCAGCUGGUUUGUUAGG [7.K],350
3,UUAUUUAACGGAAGGAGCGCGGAAAUAAAAGUGGGUAAACAUGAGGAUCACCCAUGUAAACCGCAGGUAGGUCGCCGAUAUUUAU [AstrosEXyARgB#2],93.9
4,CAUGUUAGGGCGGCCGCCACUGUGGCUACGGUACAUGAGGAUCACCCAUGUUUGUGGUUGAUCUACAGGACCGGGCCCUGACACG [Erarusge],578
5,CGAAUAUAGGCUACGUGUCAUUGAGGCGAUACCAGAUUAUGCCAGAUCCCUUGGCAGCGCCAAACAUGAGGAUCACCCAUGUUCA [theeternabot_exclusion_MS2_Theo_A_38],24.8
6,ACAUGAGGAUCACCCAUGUAAAUAACGGAAGGAGCGUGCAAAAGCACAGGUAGGUCGCCGAUAUAAAUAUUGGGUAAUAUAUUAU [ExyArgA#1],41.5
7,GGUGGCGGGACUGAUACCAGCCACCACCGAUAGACCACAUGAGGAUCACCCAUGUUGGGUGGCCCUUGGCAGCAGUCUUGCUGCU [#1 Same State - Theophylline B Attempt #13 (HarryS)],409
8,GUAAUAUACAGAAGGAGCGUGAUAGUGAGCUUGUACAACAUGAGGAUCACCCAUGUAUAAUCACAGGUAGGUCGCUGUAUAGGGU [Arg B SS t2],21.9
9,GGGACAUGAGGAUCACCCAUGUACCGGUCCCGAGGACCGGUACGGCCGCCACUCGAUGACCUCAUAGUCUGCCUGAGCAGCAGAC [Abebeti],96.6
10,AUACCGAGUGAGUCGUGUUUCUUUUCAGAUACCAGACUUUUCGUUGUCCCUUGGCAGCUGUUUUACAUGAGGAUCACCCAUGUUG [#28 Exclusion-TheophyllineA],18.1
11,GGCACUCUGUAAGAUACCAGACGUCGGUGCUUACAUGAGGAUCACCCAUGUUGCUUUUUAGUCCCUUGGCAGCUUCGGAUAACCA [Oniste],557
12,AGCCACUCGAGUGAUCCUCACGAGUGGCAACGAGGACCGGUACGGCCGCCACUCGAAUAAACAUGAGGAUCACCCAUGUAAUAAU [T''-M-T'-T-MS2],152
13,AUGCAUAGCACGGCCGCCACUCAAAUUAAACAUGAGGAUCACCCAUGUAACAUGGAUAAAAUAAAGAGGACCGGGUGAAAUGCAA [JR_SSTryptoB_Sub010],36.2
14,GAUGAACAUACUGAUACCAGUGUACUGACAUGAGGAUCACCCAUGUUGGGUUUUGUUGUACACCCUUGGCAGCAGAAUGUUUAUC [AstrosExyTheB#7],66.5
15,UCGGGCAGAGCGGCCGCCACUGUAUGGCGUGCGGAUGACGGAACAUGAGGAUCACCCAUGUUGUUUAGGACCGGGCUUGCCGCGA [cocmullin],14.7
16,UAAAAUAAUAAUGAUACCAGCCCUCCCUCCCGGGACAUGAGGAUCACCCAUGUCUCUCCCGGCCCUUGGCAGCAUAAAUAAUAAU [Same Stare - Theophylline B],15
17,GGUCGCCAACAUGGGUCGGUGAAAUGGGAAGGAGCGAGCGAGAGCUCAGGUAGGUCGCCCAAACAUGAGGAUCACCCAUGUAAUA [SSArg-A #28 UUU adds V2],113
18,UCACGACGGAUGGAUACCAGCGACAUGAGGAUCACCCAUGUAUGAGGAUCAGCCAUGUUAUGCCCUUGGCAGCCACGAAGGUCAU [YYYMULLIN],29.3
19,AUAUUAAUCGGAAGGAGCGGUACAUGAGGAUCACCCAUGUGCGAAGCCAGCAGAUCCCGUUACCAGGUAGGUCGCCGAGUUAUGA [Begebe],39.8
